Measurements from the supplement of paper PMC9170038.

System: MS2 coat protein
Assay: apparent KD of MS2 coat protein; designed switch direction (-1 OFF switch, 1 ON switch): -1; higher = weaker reporter binding
Procedure, shortened: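 Stalled E. coli RNA polymerase transcribed designed RNA switches on Illumina chips, which were then titrated with SNAP-549-labelled MS2 coat protein, doubling from 0.7 or 1.5 nM to 3 µM. Steps lasted from 0.8–1.5 h at the lowest concentration to 10–20 min at the highest. The apparent KD is each design's median over clusters of curve-fitted normalised fluorescence.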

[1] = Eterna round: R95, input ligand: FMN 200 uM
[2] = Eterna round: R95, input ligand: microRNA oligo, concentration not stated
[3] = Eterna round: R95, input ligand: none
[4] = input ligand: microRNA oligo, concentration not stated

Sequence | apparent KD of MS2 coat protein (input ligand: FMN 200 uM) [nM] | apparent KD of MS2 coat protein (input ligand: none) [nM] | apparent KD of MS2 coat protein [4] [nM] | also measured
CUGAGGUAGCGGUCCUAUGACAUGAGGAUCACCCAUGUGCCUUGCUACAAGCUUUUUGCUCGUUUUAUGAUUCUCGG [JL Atriat mod 10] (puzzle: Sensor v3, turn-off variant 1) |  |  |  | apparent KD of MS2 coat protein [1]: 72.8 nM; apparent KD of MS2 coat protein [2]: 64.6 nM; apparent KD of MS2 coat protein [3]: 83.5 nM
AGCUAGUCAGGAUAUUCUAUUAAUUACAUGAGGAUCACCCAUGUGAAUGGACAAGGGUGUGAAGAAGGGACUAGCG [Omei Ex5 A13] (Eterna round: R97, puzzle: Exclusion 5) | 394 | 2080 |  | 
AAAAAGAGAGGAUAUACAUGAGGAUCACCCAUGUGAGGGCACCGCGGGCGCGGGACCCGUAGAAGGCUCAAAAA [Exc;s3-I] (puzzle: Exclusion 3) |  |  |  | apparent KD of MS2 coat protein [1]: 16.5 nM; apparent KD of MS2 coat protein [2]: 14.7 nM; apparent KD of MS2 coat protein [3]: 20.5 nM
GAUUAGUGAGGAUAUGGUAAAGAUAAGAUGAUGAAAGAACUCCAGAAGGCACAUGAGGAUCACCCAUGUAGUAU [Mat - Exclusion 4 - Mod of JL - D22] (puzzle: Exclusion 4) |  |  |  | apparent KD of MS2 coat protein [2]: 21.6 nM
UUAAUUCUGAUUCUUGAAAUACAUGAGGAUCACCCAUGUUCACAGGAUAUUGAUUAUGUUAGUAACAAGAAGGGUGUAACAUAU [JR_ExcNG3_Sub037] (Eterna round: R96, puzzle: Exclusion NG 3) |  |  | 26.4 | 
UACAUGAGGAUCACCCAUGUUUUGUCGUGUAUGGUACCCGUCUAGGAUAUCGUGUUAUUGGACCACGAGAAGGAGAGUAUCAAU [Excl-NG3-LRO02] (Eterna round: R96, puzzle: Exclusion NG 3) | 42.6 | 31.7 | 20.3 | 
UGACAGCUAGGAUAUGGGCGUGCUUACAUGAGGAUCACCCAUGUGGUAUCUGAGUAGCACCCAGAAGGAGCCCGCG [Eternabot (L2) Solution 87] (Eterna round: R97, puzzle: Exclusion 5) | 1350 | 656 |  | 
ACAUAUGUUAGAGGAUCCUACAUGAGGAUCACCCAUGUCGGUAUAAAACUCACACGGUCAACGCUUUUUGUUCGCUA [Eternabot (L1) Solution 2] (Eterna round: R97, puzzle: Sensor, turn-off variant 1) | 30.5 | 34.7 |  | 
CUUUCGUGAGGAUAUGUGGCUAAAAUCGUGAGAUCGAGGCUACAGAAGGCACAUGAGGAUCACCCAUGUUCCUC [salish99_ex4_r4_212] (Eterna round: R97, puzzle: Exclusion 4) | 379 | 38.3 |  | 
ACCCUCCCGCAGGAUAUAAUAAAGUGGUACUUAUUAGAAGGGCGUACAUGAGGAUCACCCAUGUCGUGACGUGC [Eternabot (L1) Solution 5] (Eterna round: R97, puzzle: Exclusion 6) | 25.5 | 25.9 |  | 
GAUCCUUUGACGGACGUCUCGAAACAUGAGGAUCACCCAUGUGAGGAUAUCUCCGAGAGGUCGGCAGAGAAGGCACAUGAACAA [MOD3 Eternabot solution 19 score 84.66] (Eterna round: R96, puzzle: Exclusion NG 3) | 123 | 19.8 | 16.5 | 
AUUUAAUUUAAUAAGAUCACAUGAGGAUCACCCAUGUAUAUAUAGGAUAUCAGCUCGAAUAGAGCUGAGAAGGAUAUAUACAUG [ExNG3/8-A4] (Eterna round: R96, puzzle: Exclusion NG 3) |  |  | 15.4 | 
UCUAGCUUUUUGCGUCAAGCAUUGAAGUCUGUUAUCGUUACAUGAGGAUCACCCAUGUUUGUUUUAUGUCGUCUUGA [JR_SV3TOV2_Sub100] (puzzle: Sensor v3, turn-off variant 2) |  |  |  | apparent KD of MS2 coat protein [1]: 19.3 nM; apparent KD of MS2 coat protein [2]: 15.6 nM; apparent KD of MS2 coat protein [3]: 22.2 nM
CCCUCACAUGAGGAUCACCCAUGUUAGGAUAUCUACCAGGAGCCUAAAAUGGCCCAACGGAGAAGGAACGUGCA [Arbire] (Eterna round: R96, puzzle: Exclusion 1) |  |  | 14.7 | 
CCGGUUGGCGCAGGAUAUACAUGAGGAUCACCCAUGUUCAUCAGGAUCACCGAUGAGUUUUUGUUGUAGAAGGGUGGCCCGGCC (Eterna round: R96, puzzle: Exclusion NG 2) |  |  | 24.2 | 
GGUUCGAAAGUGAGGAUAUGCUGGUCCUUGGAUCAGCAGAAGGCACAUGAGGAUCACCCAUGUGGUAACGGACC [Mat - Exclusion 4 - Eli Mod - D37] (Eterna round: R97, puzzle: Brourd's mod of Exclusion 4) | 122 | 25.2 |  | 
GCAAGACAUGAGGAUCACCCAUGUGAGGAUAUUGCUCGACACCUGCGCGAAGAGUCGAUAAGAAGGUACAGGGU [Eternabot (L2) Solution 90] (Eterna round: R97, puzzle: Exclusion 1) | 69.4 | 52.6 |  | 
UUAUUAUAUGUAGGAUAUGCAUAUUAUUAUUAUGCAGAAGGACAUGAGGAUCACCCAUGUAUAUUAUUAUUAUAUAUUGUAUAU [Title] (Eterna round: R96, puzzle: Exclusion NG 1) |  |  | 23.2 | 

Sequence | apparent KD of MS2 coat protein (input ligand: FMN 200 uM) [nM] | apparent KD of MS2 coat protein (input ligand: none) [nM] | apparent KD of MS2 coat protein [4] [nM] | also measured
CCAGCGGACAAAGGAUAUUGCGGUGGCCGGCUCGGCGUACCGAGCCUACAUGAGGAUCACCCAUGUAAGAAGGUUGUCGUAGGA [Mat - Exclusion NG 2 - Mod of JL - D72] (Eterna round: R96, puzzle: Exclusion NG 2) | 72.2 | 22.7 | 12.2 | 
UUCCUACAUGAGGAUCACCCAUGUGAGGAUAUGCAUCGUAUUAUUCUCGUAUGUAGUAGCAGAAGGCGCAUUGG [Starry Exclusion 1.1] (Eterna round: R96, puzzle: Exclusion 1) | 82.5 | 29 | 15.9 | 
AAGAGUGCAGGAUAUACUUGGUAGGGCGGGUGGAUGGUUUGACAUGAGGAUCACCCAUGUAGAAGGGCAGAGAG [JR_Exclu2_Sub054] (puzzle: Exclusion 2) |  |  |  | apparent KD of MS2 coat protein [2]: 31.4 nM
CGAUCGGAAGGAUAUACACCUCACGUCAAACGGACAACCGGACAUGAGGAUCACCCAUGUAGAAGGUCCAAAAU [Tetixeve] (puzzle: Exclusion 2) |  |  |  | apparent KD of MS2 coat protein [2]: 55.7 nM
CAGUACAGAGGAUAUACAUGAGGAUCACCCAUGUGUAGCAGCUAGGAGACUAGCGCAUGUAGAAGGCUGUACUG [jl-ex3-4.31 salish99 mod] (Eterna round: R97, puzzle: Exclusion 3) | 129 | 21.3 |  | 
ACAUUACAUGAGGAUCACCCAUGUGAGGAUAUGGAGCGAGAGUGUCCUGUCGCGUACACCAGAAGGCGCGGGUG [1st #50] (Eterna round: R97, puzzle: Exclusion 1) | 235 | 80.1 |  | 
UUGUUGUGUGUAGGAUAUGCGUGUUAUUAUUAUGCAGAAGGACAUGAGGAUCACCCAUGUGUAUUAUUAUUAUAUAUUAUAUAU [Title] (Eterna round: R96, puzzle: Exclusion NG 1) | 23.8 | 23.5 | 17.1 | 
AGCAGACGAGGAUAUAAAUGAUAUAACAUGAGGAUCACCCAUGUACGAUCGAAUGAUCGUUUAGAAGGCGUCUGCU [E5/11-A1] (Eterna round: R97, puzzle: Exclusion 5) | 16.5 | 16.3 |  | 
UAACCUCGCGUCAGGAUAUGCGAGGACUGUGACGUGCAGAAGGGACAUGAGGAUCACCCAUGUGAAAGAAUUAA [Acecequ] (puzzle: Brourd's mod of Exclusion 4) |  |  |  | apparent KD of MS2 coat protein [2]: 20.3 nM
UUAGAGUCAGGAUAUGCAGCUCCCUGUAGGGCCGAACAGCAGUAGAAGGGACAUGAGGAUCACCCAUGUGAUAG [Eternabot (L2) Solution 52] (Eterna round: R97, puzzle: Exclusion 4) | 86.1 | 81.5 |  | 
UUUUAACAUGAGGAUCACCCAUGUGAGGAUAUGGUUUUUUUUUUUUUUUUUUUUUUUUCCAGAAGGCACAUUUU [My solution] (Eterna round: R96, puzzle: Exclusion 1) | 269 | 31.6 | 44.2 | 
UAUUUACGAGGAUAUCGUUUUUUUCACAUGAGGAUCACCCAUGUUGUUUAUGUUGCGUUGCGAGAAGGCGUUUGUU [JR_E5_Sub062] (puzzle: Exclusion 5) |  |  |  | apparent KD of MS2 coat protein [2]: 26.6 nM
CGGGUUCGUGUUAGGAUAUGCACGCACCCGUUGCGGCAGAAGGAACAUGAGGAUCACCCAUGUGAAUAAGAAAG [BmEX4 A.21] (Eterna round: R97, puzzle: Brourd's mod of Exclusion 4) | 17.1 | 15.5 |  | 
AAGAUGUUAGGAUAUCGAAGGUUGUGGCAGGCGGGAAUUUGCGAGAAGGAACAUGAGGAUCACCCAUGUGAAAU [JR_Exclu4_Sub043] (puzzle: Exclusion 4) |  |  |  | apparent KD of MS2 coat protein [2]: 19.7 nM
UUAUACGCUGAGGAUAUCUUCACUAAAGUGUGAAGAGAAGGCGGUACAUGAGGAUCACCCAUGUCUAUGGGCAG [Ex-6 Malc#18] (puzzle: Exclusion 6) |  |  |  | apparent KD of MS2 coat protein [1]: 596 nM; apparent KD of MS2 coat protein [2]: 568 nM; apparent KD of MS2 coat protein [3]: 282 nM
AGGACAUGAGGAUCACCCAUGUAGUGAGGUGUAUCCGAAGACGAGGAUAUACAGAGGAAAUAUCUGUAGAAGGUGUAAUAAAAU [Istediso] (Eterna round: R96, puzzle: Exclusion NG 3) | 725 | 299 | 247 | 
UUUGAUAGCACAGGAUAUUGUCAUUUGAGUUGUCAAGAAGGGUGUACAUGAGGAUCACCCAUGUAAUGGUUGCCUCGCUGACUU [JR_ExcNG1_Sub007] (Eterna round: R96, puzzle: Exclusion NG 1) |  |  | 105 | 
